Tests used:
MERTK = MERTK (UniProt Q12866); experiment: phosphorylation enrichment, bacterial display (enrichment ratio); higher = better substrate or ligand; peptides without Tyr show the background
EPHB1 = EPHB1 (UniProt P54762); experiment: as above
c-Src = experiment: as above
FGFR1 = FGFR1 (UniProt P11362); experiment: as above
EPHB2 = EPHB2 (UniProt P29323); experiment: as above
Hck = Hck (UniProt P08631); experiment: as above
c-Abl (mouse) = experiment: as above
Fer (mouse) = experiment: as above
Fyn = Fyn (UniProt P06241); experiment: as above
Fes = Fes (UniProt P07332); experiment: as above
Jak2 = Jak2 (UniProt O60674); experiment: as above
FGFR3 = FGFR3 (UniProt P22607); experiment: as above
AncSZ = experiment: as above
SHP2-C SH2 = experiment: SH2 binding enrichment of the phosphorylated peptide, bacterial display (enrichment ratio); higher = better substrate or ligand; peptides without Tyr show the background
Grb2 SH2 = Grb2 SH2 (UniProt P62993); experiment: as above
c-Src SH2 = experiment: as above
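Wherever SH2 binding enrichment of the phosphorylated peptide, bacterial display is given: peptide library displayed on the E. coli surface as eCPX fusions, selected cells deep-sequenced, score is each peptide's frequency after selection divided by its frequency in the input.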
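Wherever phosphorylation enrichment, bacterial display is given: 11-residue human phosphosite peptides and single-mutation variants displayed on the E. coli surface, counted by deep sequencing, each peptide's frequency after selection divided by its frequency in the unselected input library; frequency after pTyr selection over input frequency; kinase dosed for 20-30% of maximal phosphorylation in three min.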

Hck, sequence (P08631 whole entry, looked up): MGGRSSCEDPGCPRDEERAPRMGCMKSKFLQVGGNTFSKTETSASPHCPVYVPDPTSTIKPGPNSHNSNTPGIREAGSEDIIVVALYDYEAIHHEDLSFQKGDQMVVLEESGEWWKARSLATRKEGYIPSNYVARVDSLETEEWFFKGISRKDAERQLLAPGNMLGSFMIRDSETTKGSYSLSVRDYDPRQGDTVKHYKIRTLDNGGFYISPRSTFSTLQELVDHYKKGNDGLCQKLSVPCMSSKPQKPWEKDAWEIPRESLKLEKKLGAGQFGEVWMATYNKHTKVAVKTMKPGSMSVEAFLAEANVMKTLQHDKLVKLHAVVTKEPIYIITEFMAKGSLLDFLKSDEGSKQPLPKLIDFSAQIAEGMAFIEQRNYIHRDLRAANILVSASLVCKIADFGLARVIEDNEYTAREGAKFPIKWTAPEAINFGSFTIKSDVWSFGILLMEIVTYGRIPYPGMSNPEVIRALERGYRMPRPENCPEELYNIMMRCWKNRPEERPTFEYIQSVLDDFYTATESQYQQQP
Fes, sequence (P07332 whole entry, looked up): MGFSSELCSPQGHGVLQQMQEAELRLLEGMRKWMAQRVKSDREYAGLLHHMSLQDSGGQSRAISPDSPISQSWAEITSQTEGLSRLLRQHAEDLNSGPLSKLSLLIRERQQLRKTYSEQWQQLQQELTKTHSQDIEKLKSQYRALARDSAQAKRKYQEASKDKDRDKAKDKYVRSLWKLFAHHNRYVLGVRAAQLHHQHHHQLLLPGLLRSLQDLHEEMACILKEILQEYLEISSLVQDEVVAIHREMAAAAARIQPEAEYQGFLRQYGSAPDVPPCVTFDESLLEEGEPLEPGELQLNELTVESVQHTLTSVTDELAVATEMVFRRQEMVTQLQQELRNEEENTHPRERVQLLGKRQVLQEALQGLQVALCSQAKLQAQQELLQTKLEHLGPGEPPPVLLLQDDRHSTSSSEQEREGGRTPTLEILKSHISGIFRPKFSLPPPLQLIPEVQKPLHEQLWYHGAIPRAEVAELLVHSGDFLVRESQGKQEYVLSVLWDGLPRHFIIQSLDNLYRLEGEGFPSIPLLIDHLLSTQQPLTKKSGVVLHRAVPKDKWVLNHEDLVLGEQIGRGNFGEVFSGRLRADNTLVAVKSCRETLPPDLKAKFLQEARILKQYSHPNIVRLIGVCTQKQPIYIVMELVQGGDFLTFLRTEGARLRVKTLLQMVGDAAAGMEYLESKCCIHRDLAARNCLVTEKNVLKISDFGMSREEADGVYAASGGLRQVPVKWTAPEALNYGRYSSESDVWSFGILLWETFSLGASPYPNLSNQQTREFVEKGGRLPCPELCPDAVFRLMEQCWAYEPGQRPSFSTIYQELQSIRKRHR
Jak2, sequence (O60674 whole entry, looked up): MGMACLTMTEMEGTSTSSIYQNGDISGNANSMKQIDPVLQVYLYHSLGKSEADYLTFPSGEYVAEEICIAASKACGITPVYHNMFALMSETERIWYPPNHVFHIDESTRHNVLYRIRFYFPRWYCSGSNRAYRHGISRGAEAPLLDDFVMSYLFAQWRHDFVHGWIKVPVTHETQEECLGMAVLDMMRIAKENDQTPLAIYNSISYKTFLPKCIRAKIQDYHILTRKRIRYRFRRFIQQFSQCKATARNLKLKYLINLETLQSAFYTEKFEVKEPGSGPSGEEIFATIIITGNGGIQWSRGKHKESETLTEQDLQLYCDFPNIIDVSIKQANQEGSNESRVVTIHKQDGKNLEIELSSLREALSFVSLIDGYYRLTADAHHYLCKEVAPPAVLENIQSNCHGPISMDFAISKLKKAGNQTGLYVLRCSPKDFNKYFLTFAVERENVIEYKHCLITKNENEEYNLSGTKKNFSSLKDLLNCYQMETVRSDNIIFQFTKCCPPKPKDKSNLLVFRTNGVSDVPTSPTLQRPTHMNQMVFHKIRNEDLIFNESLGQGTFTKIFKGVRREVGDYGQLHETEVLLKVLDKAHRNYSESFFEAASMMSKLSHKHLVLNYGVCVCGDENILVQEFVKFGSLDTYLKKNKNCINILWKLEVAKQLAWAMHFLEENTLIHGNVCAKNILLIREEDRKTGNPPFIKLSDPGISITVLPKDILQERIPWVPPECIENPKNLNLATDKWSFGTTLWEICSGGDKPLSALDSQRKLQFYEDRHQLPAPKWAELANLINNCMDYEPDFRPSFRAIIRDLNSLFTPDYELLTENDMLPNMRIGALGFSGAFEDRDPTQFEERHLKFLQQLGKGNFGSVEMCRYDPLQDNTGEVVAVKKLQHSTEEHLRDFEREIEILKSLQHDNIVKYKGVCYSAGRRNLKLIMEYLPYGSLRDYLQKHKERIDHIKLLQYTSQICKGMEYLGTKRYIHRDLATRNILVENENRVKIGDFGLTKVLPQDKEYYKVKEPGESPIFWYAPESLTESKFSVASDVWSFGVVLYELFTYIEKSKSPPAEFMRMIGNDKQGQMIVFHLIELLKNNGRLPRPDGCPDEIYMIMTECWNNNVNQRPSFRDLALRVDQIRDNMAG
FGFR1, sequence (P11362 whole entry, looked up): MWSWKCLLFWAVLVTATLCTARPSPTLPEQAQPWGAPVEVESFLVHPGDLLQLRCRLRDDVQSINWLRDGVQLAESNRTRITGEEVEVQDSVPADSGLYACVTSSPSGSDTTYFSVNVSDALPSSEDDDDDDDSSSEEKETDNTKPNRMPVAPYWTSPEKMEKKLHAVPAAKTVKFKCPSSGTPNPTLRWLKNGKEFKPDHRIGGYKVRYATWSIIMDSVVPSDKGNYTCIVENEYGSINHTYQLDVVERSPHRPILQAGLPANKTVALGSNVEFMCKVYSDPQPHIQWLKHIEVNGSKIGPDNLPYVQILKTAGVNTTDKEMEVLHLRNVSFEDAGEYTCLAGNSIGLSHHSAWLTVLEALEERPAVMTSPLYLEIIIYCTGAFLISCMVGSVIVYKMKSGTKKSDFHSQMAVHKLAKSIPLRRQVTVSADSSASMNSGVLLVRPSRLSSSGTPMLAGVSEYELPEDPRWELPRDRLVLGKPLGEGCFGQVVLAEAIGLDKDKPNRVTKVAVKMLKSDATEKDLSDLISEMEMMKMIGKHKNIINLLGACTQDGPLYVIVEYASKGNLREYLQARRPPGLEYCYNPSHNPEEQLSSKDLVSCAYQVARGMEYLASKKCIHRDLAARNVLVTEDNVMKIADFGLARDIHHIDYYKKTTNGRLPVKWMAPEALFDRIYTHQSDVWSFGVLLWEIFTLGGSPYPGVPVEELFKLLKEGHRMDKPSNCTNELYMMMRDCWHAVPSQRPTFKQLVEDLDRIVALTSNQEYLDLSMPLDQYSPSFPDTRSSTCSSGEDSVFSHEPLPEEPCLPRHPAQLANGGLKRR
MERTK, sequence (Q12866 whole entry, looked up): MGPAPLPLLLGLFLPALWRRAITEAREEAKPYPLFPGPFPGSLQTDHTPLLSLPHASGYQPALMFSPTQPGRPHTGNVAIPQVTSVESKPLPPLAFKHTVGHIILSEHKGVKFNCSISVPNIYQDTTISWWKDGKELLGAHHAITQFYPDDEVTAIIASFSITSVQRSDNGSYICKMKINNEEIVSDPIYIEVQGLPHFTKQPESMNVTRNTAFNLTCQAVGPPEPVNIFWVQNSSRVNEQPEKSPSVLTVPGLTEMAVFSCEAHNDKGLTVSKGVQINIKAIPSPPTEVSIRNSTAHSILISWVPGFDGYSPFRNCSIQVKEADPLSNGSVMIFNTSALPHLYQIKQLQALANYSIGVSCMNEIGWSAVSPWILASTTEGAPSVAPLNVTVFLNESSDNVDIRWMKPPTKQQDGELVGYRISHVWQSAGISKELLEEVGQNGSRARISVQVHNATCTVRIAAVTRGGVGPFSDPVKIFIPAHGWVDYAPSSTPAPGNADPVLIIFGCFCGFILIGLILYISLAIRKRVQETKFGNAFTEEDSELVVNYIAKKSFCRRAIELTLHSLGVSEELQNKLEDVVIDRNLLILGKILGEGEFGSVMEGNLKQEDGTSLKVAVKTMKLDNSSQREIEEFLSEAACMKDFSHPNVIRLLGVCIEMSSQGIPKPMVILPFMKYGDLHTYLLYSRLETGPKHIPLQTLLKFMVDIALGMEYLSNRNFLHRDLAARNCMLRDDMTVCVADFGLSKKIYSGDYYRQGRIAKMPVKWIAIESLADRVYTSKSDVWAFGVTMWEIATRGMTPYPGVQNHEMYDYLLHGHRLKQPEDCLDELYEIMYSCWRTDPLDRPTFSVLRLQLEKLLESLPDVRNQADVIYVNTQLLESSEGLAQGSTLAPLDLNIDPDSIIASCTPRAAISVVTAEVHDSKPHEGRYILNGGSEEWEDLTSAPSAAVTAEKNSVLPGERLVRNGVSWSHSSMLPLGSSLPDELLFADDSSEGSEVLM
Fyn, sequence (P06241 whole entry, looked up): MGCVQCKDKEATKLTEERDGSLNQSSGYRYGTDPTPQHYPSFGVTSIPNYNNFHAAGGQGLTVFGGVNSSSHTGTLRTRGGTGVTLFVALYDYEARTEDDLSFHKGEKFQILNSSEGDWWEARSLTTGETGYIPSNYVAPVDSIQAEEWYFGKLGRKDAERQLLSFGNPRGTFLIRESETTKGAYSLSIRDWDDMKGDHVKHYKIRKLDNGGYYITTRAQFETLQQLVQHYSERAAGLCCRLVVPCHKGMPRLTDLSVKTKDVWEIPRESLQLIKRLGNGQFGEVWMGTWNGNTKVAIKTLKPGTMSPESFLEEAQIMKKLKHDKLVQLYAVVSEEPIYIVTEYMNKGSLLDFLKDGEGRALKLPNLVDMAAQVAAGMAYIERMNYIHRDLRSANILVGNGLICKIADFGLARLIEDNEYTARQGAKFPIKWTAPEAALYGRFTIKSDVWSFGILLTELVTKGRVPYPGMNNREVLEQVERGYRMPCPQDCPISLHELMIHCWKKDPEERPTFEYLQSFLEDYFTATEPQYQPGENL

SH2 binding enrichment (SHP2-C SH2)	SH2 binding enrichment (Grb2 SH2)	SH2 binding enrichment (c-Src SH2)	Sequence	phosphorylation enrichment (MERTK)	phosphorylation enrichment (EPHB1)	phosphorylation enrichment (c-Src)	phosphorylation enrichment (FGFR1)	phosphorylation enrichment (EPHB2)	phosphorylation enrichment (Hck)	phosphorylation enrichment (c-Abl (mouse))	phosphorylation enrichment (Fer (mouse))	phosphorylation enrichment (Fyn)	phosphorylation enrichment (Fes)	phosphorylation enrichment (Jak2)	phosphorylation enrichment (FGFR3)	phosphorylation enrichment (AncSZ)
0.629	0.661	0.557	ADARMYGVLPR [PLP1_Y207_W212R]	0.405	0.378	0.727	0.467	0.477	3.23	0.481	0.385	0.536	0.467	0.398	0.44	0.598
0.5	0.915	0.635	QLAPQYTFTQG [FLNA_Y1761_A1764T_YF]	1.1	0.621	1.12	0.918	0.845	0.748	1.49	0.58	1.09	1.09	1.21	0.982	1.27
1.55	0.873	0.486	LNPFIYSLRNR [OR1A1_Y288]	0.493	0.437	2.23	0.891	0.618	1.28	0.974	0.6	0.657	1.55	1.43	0.579	1.46
1.4	0.792	0.569	LVMFIYAISGM [SCN1A_Y1684_F1687S]	0.725	0.931	0.85	0.48	0.927	0.727	1.17	0.813	0.442	1.99	1.17	1.01	1.2
0.742	0.849	0.661	LKMLVYMDMSK [LRRC7_Y234_L235M]	0.689	1.79	0.872	1.02	0.804	0.802	1.23	0.842	0.807	2.25	1.85	0.984	1.45
0.736	1.01	0.71	VNTMLYEKFTF [TEK_Y1108_T1106M_YF]	8.45	6.33	6.07	0.621	4.34	6.73	2.38	13.7	5.93	1.22	0.917	0.697	1.29
0.899	0.866	3.31	AVVEPYNSILT [TUBA1A_Y185]	0.415	0.489	0.453	0.438	0.365	0.43	0.534	0.377	0.434	0.83	0.802	0.496	0.686
0.838	1.19	1.02	YCVDCYKNFVA [FHL1_Y213]	0.722	0.564	0.507	0.572	0.514	0.54	0.737	0.532	0.532	0.832	0.726	0.651	0.668
0.561	0.739	0.576	VPFARYLAMNK [HARS1_Y138]	0.376	0.379	0.362	0.388	0.43	0.381	0.328	0.334	0.382	0.516	0.361	0.442	0.432
1.1	1.24	0.793	IKNSGYISRFL [EIF2AK3_Y585_YF]	0.44	0.366	0.43	0.367	0.455	0.379	0.537	0.286	0.348	0.669	0.61	0.495	0.564
0.701	0.626	1.08	TVVVPYEPPEV [TP53_Y220_S215T]	0.549	0.548	0.537	0.528	0.439	0.458	0.89	0.512	0.475	1.16	1.35	0.62	1.08
0.704	0.958	0.631	TQNAVYSAANF [DDX5_Y535_G533A_YF]	8.98	3.15	8.46	0.519	4.24	12	7.53	6.31	10.3	0.694	0.526	0.515	0.634
0.674	0.818	2.06	EEGNPYYSSAR [MCCC2_Y520]	0.422	0.499	1.99	0.468	0.473	1.18	0.679	0.528	0.793	0.845	0.848	0.647	1.09
0.635	1.08	0.974	MAFDRYVAICA [OR52J3_Y125_V128I]	0.386	1.12	0.394	0.586	0.659	0.555	0.362	0.562	0.454	0.808	0.726	0.708	0.939
0.607	0.735	0.874	ARIVDYNIIGW [MYH7_Y588_G584R]	0.454	0.542	0.445	0.81	0.662	0.56	0.561	0.406	0.545	0.846	0.671	0.839	0.808
0.463	0.935	0.521	RTMPDYTSFNT [EPHB2_Y912_I909M]	0.459	0.724	1.31	1.05	0.961	0.591	0.618	0.705	1.07	0.947	0.692	1	1.38
0.48	1	0.446	ALECLYHREKR [TEKT5_Y195]	0.406	0.618	0.571	0.484	0.675	0.583	0.927	0.451	0.512	1.15	0.884	0.734	1.26

SH2 binding enrichment (SHP2-C SH2)	SH2 binding enrichment (Grb2 SH2)	SH2 binding enrichment (c-Src SH2)	Sequence	phosphorylation enrichment (MERTK)	phosphorylation enrichment (EPHB1)	phosphorylation enrichment (c-Src)	phosphorylation enrichment (FGFR1)	phosphorylation enrichment (EPHB2)	phosphorylation enrichment (Hck)	phosphorylation enrichment (c-Abl (mouse))	phosphorylation enrichment (Fer (mouse))	phosphorylation enrichment (Fyn)	phosphorylation enrichment (Fes)	phosphorylation enrichment (Jak2)	phosphorylation enrichment (FGFR3)	phosphorylation enrichment (AncSZ)
1.82	1.59	1.37	KVKPIYFHTQG [AR_Y916]	0.356	0.358	0.522	0.468	0.422	0.385	0.578	0.28	0.371	0.708	0.53	0.507	0.645
0.756	0.741	0.556	CGASGYSATST [CERT1_Y143_S138C]	0.523	0.55	0.489	0.457	0.706	0.51	0.746	0.675	0.476	1.08	1.06	0.872	1.02
0.504	0.609	1.27	RDLHTYIMPAH [PNMT_Y256_R254H]	0.601	0.754	0.631	0.982	0.725	0.748	0.878	0.564	1.19	1.24	0.957	1.04	1.61
1.51	1.22	1.01	VASIFYTLVIP [OR8K3_Y277]	5.43	0.978	0.945	1.72	0.769	0.661	0.882	2.79	0.502	1.49	1.45	1.63	1.83
0.823	0.944	0.482	PNLILYGDFRQ [MYH7_Y715_R712L]	0.465	0.688	2.98	0.552	0.602	2.87	0.766	0.72	5.16	1.28	0.75	0.762	1.09
0.707	0.907	0.514	IRQDDYESLKE [MTR_Y921_H920D]	0.474	0.633	0.533	0.5	0.553	0.571	1	0.463	0.455	1.15	1.13	0.608	1.32
0.62	0.973	0.592	HFVDEYDQTIE [KRAS_Y32_P34Q]	0.804	1.1	0.935	0.93	1.07	0.835	1.01	0.667	0.897	2.04	2.14	0.852	2.79
0.605	0.77	0.656	MGGSLYFSYPD [HIKESHI_Y55_V54L]	7.06	4.44	4.41	3.4	5.75	3.45	1.16	0.802	3.46	1.26	2.11	3.12	1.49
0.87	1.06	0.809	KHCEDYVCSFN [DSC1_Y846_YF]	0.424	0.564	0.829	0.572	0.522	0.446	0.719	0.525	0.473	1.08	1.13	0.681	1.15
0.545	0.831	0.543	MKALGYFAVGT [OPA1_Y498_V502G]	0.355	0.469	0.487	0.479	0.486	0.489	0.7	0.395	0.432	0.973	1.92	0.64	0.798
0.899	0.892	0.755	EVEFEYPFRLH [SYP_Y73]	0.396	0.564	0.588	0.42	0.584	0.509	0.735	0.489	0.336	1.37	1.5	0.724	1
0.679	0.614	0.405	PPSELYFVKVD [TERT_Y707_P704S]	1.82	0.699	1.26	0.815	0.965	1.95	0.733	0.815	0.784	1.63	0.925	0.92	1.19
0.653	0.976	0.418	RVDRDYVLKSA [HTATIP2_Y111]	0.857	0.487	0.961	0.627	0.442	0.772	0.709	0.665	0.47	0.872	0.75	0.585	1.08
0.893	0.796	7.33	ISTAGYSIPEL [EDAR_Y406]	0.713	0.525	0.457	0.416	0.464	0.534	1.46	0.436	0.397	0.92	0.745	0.697	0.807
0.564	0.67	0.523	ADMETYLLEKS [MYH7_Y266_I263M]	0.447	0.612	0.869	0.573	0.581	0.549	0.864	0.454	0.573	1.11	0.983	0.582	0.949
1.64	1.47	1.47	KGRAGYTTVAV [RET_Y752]	0.415	0.286	0.347	0.309	0.265	0.337	0.454	0.325	0.319	0.519	0.437	0.412	0.46

From the supplement of paper PMC10065799, “High-throughput profiling of sequence recognition by tyrosine kinases and SH2 domains using bacterial peptide display” (eLife, 2023)
